Substitutions are numbered along the chain they refer to.
B1: SEQ ID NO: 301: GAT polypeptide (protein)
chain: MIEVKPINAEDTYEIRHRILRPNQPLEACMYETDLLRSAFHLGGYYRGKLISIASFHQAEHPELEGQKQYQLRGMATLEEYREQKAGSTLIRHAEELLRKKGADLLWCNARTSASGYYKKLGFSEQGEVYDTPPVGPHILMYKKLT
modifications: 13_7A7
notes: GAT polypeptide
B2: SEQ ID NO: 283: GAT polypeptide (protein)
chain: MIEVKPINAEDTYEIRHRILRPNQPLEACKYETDLLGGTFHLGGYYQGKLISIASFHQAEHSELEGQKQYQLRGMATLEGYREQKAGSTLIRHAEELLRKKGADLLWCNARTSVSGYYKKLGFSEQGGVYDIPPIGPHILMYKKLT
modifications: 11C3
notes: GAT polypeptide
B3: SEQ ID NO: 319: GAT polypeptide (protein)
chain: B1 chain with M30K, S38G, I51V, Q67L, E80G, V135T
modifications: 14_7A11
notes: GAT polypeptide
B4: SEQ ID NO: 298: GAT polypeptide (protein)
chain: B2 chain with K30M, T39A, Q47R, V114A
modifications: 1_2H6
notes: GAT polypeptide
B5: SEQ ID NO: 315: GAT polypeptide (protein)
chain: B1 chain with M30K, R37G, A39T, E80G
modifications: 14_4H8
notes: GAT polypeptide
B6: SEQ ID NO: 285: GAT polypeptide (protein)
chain: B2 chain with K30M, T39A, Q58K, S115R, K119E
modifications: 11H3
notes: GAT polypeptide
B7: SEQ ID NO: 321: GAT polypeptide (protein)
chain: B1 chain with M30K, R37G, S38G, A39T, I51V, E60K, E80G
modifications: 14_7A9
notes: GAT polypeptide
B8: SEQ ID NO: 314: GAT polypeptide (protein)
chain: B2 chain with G37R, T39A, Q47R, I51V, S62P, E96A, V114A, I135A
modifications: 14_3B2
notes: GAT polypeptide
B9: SEQ ID NO: 296: GAT polypeptide (protein)
chain: B2 chain with K30M, Q58K, V129I
modifications: 12F5
notes: GAT polypeptide
B10: SEQ ID NO: 291: GAT polypeptide (protein)
chain: B1 chain with R37G, S38G, A39T, E128G, T132I
modifications: 12_6D1
notes: GAT polypeptide
B11: SEQ ID NO: 294: GAT polypeptide (protein)
chain: B2 chain with Q47R, S62P, V114A, I135T
modifications: 12_7D6
notes: GAT polypeptide
B12: SEQ ID NO: 317: GAT polypeptide (protein)
chain: B2 chain with Q47R, S62P, V114A, I132M, I135V
modifications: 14_6B10
notes: GAT polypeptide
B13: SEQ ID NO: 292: GAT polypeptide (protein)
chain: B2 chain with Q47R, S62P, V114A, G128E, I135T
modifications: 12_6F9
notes: GAT polypeptide
B14: SEQ ID NO: 284: GAT polypeptide (protein)
chain: B2 chain with K30M, V114A, K119E, T146A
modifications: 11G3
notes: GAT polypeptide
B15: SEQ ID NO: 320: GAT polypeptide (protein)
chain: B1 chain with S38G, A39T, I51V, V135A
modifications: 14_7A1
notes: GAT polypeptide
B16: SEQ ID NO: 308: GAT polypeptide (protein)
chain: B1 chain with M30K, S38G, I51V, E80G
modifications: 14_10H9
notes: GAT polypeptide
B17: SEQ ID NO: 289: GAT polypeptide (protein)
chain: B1 chain with M30K, R37G, S38G, A39T, T132A, V135T
modifications: 12_5C10
notes: GAT polypeptide
B18: SEQ ID NO: 293: GAT polypeptide (protein)
chain: B2 chain with Q47R, I51V, S62P, E96A, V114A, G128E, I135T
modifications: 12_6H6
notes: GAT polypeptide
B19: SEQ ID NO: 305: GAT polypeptide (protein)
chain: B1 chain with M30K, R37G, S38G, A39T, T132I
modifications: 13_9F6
notes: GAT polypeptide
B20: SEQ ID NO: 307: GAT polypeptide (protein)
chain: B1 chain with M30K, S38G, I51V
modifications: 14_10H3
notes: GAT polypeptide
B21: SEQ ID NO: 290: GAT polypeptide (protein)
chain: B2 chain with Q47R, I51V, S62P, V114A, I135V
modifications: 12_6A10
notes: GAT polypeptide
B22: SEQ ID NO: 309: GAT polypeptide (protein)
chain: B1 chain with M30K, R37G, A39T, I51V, E96A, V135T
modifications: 14_11C2
notes: GAT polypeptide
B23: SEQ ID NO: 286: GAT polypeptide (protein)
chain: B2 chain with Q47R, S62P, V114A, G128E, Y130H, I135T
modifications: 12_1F9
notes: GAT polypeptide
B24: SEQ ID NO: 311: GAT polypeptide (protein)
chain: B1 chain with M30K, R37G, S38G, T132I, V135T
modifications: 14_12H6
notes: GAT polypeptide
B25: SEQ ID NO: 297: GAT polypeptide (protein)
chain: B2 chain with Q58K, G128E
modifications: 12G7
notes: GAT polypeptide
B26: SEQ ID NO: 306: GAT polypeptide (protein)
chain: B1 chain with M30K, S38G
modifications: 14_10C9
notes: GAT polypeptide
B27: SEQ ID NO: 313: GAT polypeptide (protein)
chain: B1 chain with M30K, S38G, I51V, E80G, T132I, V135T
modifications: 14_2G11
notes: GAT polypeptide
B28: SEQ ID NO: 312: GAT polypeptide (protein)
chain: B2 chain with Q47R, H57N, S62P, V114A, I135V
modifications: 14_2B6
notes: GAT polypeptide
B29: SEQ ID NO: 303: GAT polypeptide (protein)
chain: B1 chain with M30K, S38G, E80G, S115R, T132I, V135T
modifications: 13_7C1
notes: GAT polypeptide
B30: SEQ ID NO: 295: GAT polypeptide (protein)
chain: B2 chain with Q47R, V114A, G128E, I132T, I135V
modifications: 12_7G11
notes: GAT polypeptide
B31: SEQ ID NO: 299: GAT polypeptide (protein)
chain: B1 chain with R37G, S38G, A39T, H57N, T132I, Y142H
modifications: 13_12G12
notes: GAT polypeptide
B32: SEQ ID NO: 310: GAT polypeptide (protein)
chain: B2 chain with Q47R, I51V, S62P, E96A, V114A, S124R, I135V
modifications: 14_12D8
notes: GAT polypeptide
B33: SEQ ID NO: 318: GAT polypeptide (protein)
chain: B1 chain with M30K, R37G, S38G, A39T, H57N, E80G, E96A
modifications: 14_6D4
notes: GAT polypeptide
B34: SEQ ID NO: 287: GAT polypeptide (protein)
chain: B1 chain with M30K, R37G, S38G, A39T, I51V, E80G
modifications: 12_2G9
notes: GAT polypeptide
B35: SEQ ID NO: 288: GAT polypeptide (protein)
chain: B2 chain with Q47R, S62P, V114A, I135V
modifications: 12_3F1
notes: GAT polypeptide
B36: SEQ ID NO: 316: GAT polypeptide (protein)
chain: B1 chain with R37G, S38G, A39T, I51V, H57N, E80G, I139V
modifications: 14_6A8
notes: GAT polypeptide
B37: SEQ ID NO: 304: GAT polypeptide (protein)
chain: B2 chain with L35S, Q47R, H57N, S62P, V114A, I135V
modifications: 13_8G6
notes: GAT polypeptide
B38: SEQ ID NO: 302: GAT polypeptide (protein)
chain: B2 chain with G38S, Q47R, S62P, V114A, G128E, I135T
modifications: 13_7B12
notes: GAT polypeptide

Assay: Standard protocol for determination of kcat and KM (continuous spectrophotometric assay, Acetyl CoA hydrolysis at 235 nm)
Type: biochemical
Details: purified protein; about 23° C.; 20 mM HEPES pH 6.8, 10% ethylene glycol, 0.2 mM acetyl CoA
Outline: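 KM from initial rates over 0.125–10 mM glyphosate, fitted by Lineweaver-Burke transformation of Michaelis-Menten; kcat/KM computed as kcat divided by KM. Continuous spectrophotometric read of acetyl-CoA hydrolysis at 235 nm.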

In order of rising Kcat:
1. B6  0.02 s⁻¹
2. B25  0.0383 s⁻¹
3. B2  0.0467 s⁻¹
4. B9  0.0517 s⁻¹
5. B4  0.155 s⁻¹
6. B14  0.26 s⁻¹
7. B37  0.562 s⁻¹
8. B28  0.57 s⁻¹
9. B31  0.602 s⁻¹
10. B36  0.728 s⁻¹
11. B35  0.735 s⁻¹
12. B29  0.802 s⁻¹
13. B10  0.817 s⁻¹
14. B11  0.898 s⁻¹
15. B21  0.912 s⁻¹
16. B19  0.983 s⁻¹
17. B32  1.04 s⁻¹
18. B8  1.14 s⁻¹
19. B38  1.15 s⁻¹
20. B27  1.16 s⁻¹
21. B23  1.34 s⁻¹
22. B13  1.48 s⁻¹
23. B17  1.49 s⁻¹
24. B18  1.51 s⁻¹
25. B24  1.52 s⁻¹
26. B20  1.753 s⁻¹
27. B22  1.812 s⁻¹
28. B1  1.95 s⁻¹
29. B16  2.12 s⁻¹
30. B26  2.12 s⁻¹
31. B12  2.245 s⁻¹
32. B34  2.523 s⁻¹
33. B15  2.597 s⁻¹
34. B3  3.287 s⁻¹
35. B5  3.313 s⁻¹
36. B30  3.908 s⁻¹
37. B7  4.098 s⁻¹
38. B33  4.27 s⁻¹

Same assay, conditions: purified protein; about 23° C.; pH 6.8; 0.2 mM acetyl CoA; glyphosate 0.125 to 10 mM

In order of rising Km:
1. B1  500 µM
2. B20  600 µM
3. B37  610 µM
4. B28  630 µM
5. B31  690 µM
6. B36  780 µM
7. B8  850 µM
8. B4  900 µM
9. B24  900 µM
10. B26  900 µM
11. B35  900 µM
12. B22  1000 µM
13. B32  1000 µM
14. B33  1000 µM
15. B16  1100 µM
16. B21  1100 µM
17. B10  1200 µM
18. B19  1300 µM
19. B6  1400 µM
20. B11  1400 µM
21. B12  1400 µM
22. B27  1400 µM
23. B17  1500 µM
24. B29  1500 µM
25. B34  1500 µM
26. B15  1600 µM
27. B18  1600 µM
28. B14  1700 µM
29. B38  1700 µM
30. B9  1800 µM
31. B13  1900 µM
32. B5  2000 µM
33. B30  2000 µM
34. B23  3000 µM
35. B2  3100 µM
36. B7  3200 µM
37. B3  3700 µM
38. B25  3700 µM
